# Measurements taken from US20220249563A1 (LEGEND BIOTECH IRELAND, published 2022).
# T1: extracellular domain of human DLL3 protein (aa27-466) having an N-terminal FLAG tag (AdipoGen, AG-40B-0151) (human, UniProt Q9NYJ7 27-466)
# T1 construct: range 27-466; also called DLL3 ECD protein
# T1 sequence (looked up): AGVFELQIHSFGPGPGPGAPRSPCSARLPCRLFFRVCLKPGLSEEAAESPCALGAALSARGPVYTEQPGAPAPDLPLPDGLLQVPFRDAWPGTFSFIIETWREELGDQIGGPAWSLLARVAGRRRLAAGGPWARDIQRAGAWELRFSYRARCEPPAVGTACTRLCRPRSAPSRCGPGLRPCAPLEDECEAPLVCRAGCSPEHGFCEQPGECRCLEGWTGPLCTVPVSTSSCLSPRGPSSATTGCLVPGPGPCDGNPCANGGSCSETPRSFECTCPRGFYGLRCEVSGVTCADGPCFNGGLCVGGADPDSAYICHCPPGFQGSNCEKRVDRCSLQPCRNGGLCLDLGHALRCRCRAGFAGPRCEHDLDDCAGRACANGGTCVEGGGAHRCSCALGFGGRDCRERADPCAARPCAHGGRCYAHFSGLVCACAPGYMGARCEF
# Molecular target: T1, extracellular domain of human DLL3 …
# Assay: ELISA (protein), FACS (cells)
row,Binder,binding result
1,"AS64114 (VHH, camel sdAb; crude E. coli supernatant) VHH: QVQLQESGGGSVQAGGSLTLSCEASGNTYSTNYMGWFRQAPGKEREEVAVIYTRGGHTYYVDSVRGRFTISQDNAKNTVYLQMNSLKPEDTAMYYCAAASRHRLRLNNPRDYDYWGQGTQVTVSS",binds
2,"AS64276 (VHH, camel sdAb; crude E. coli supernatant) VHH: QVHLMESGGGSVQAGGSLSLSCVVSGYTGSSRCMAWFRQAPGKEREAVAQIFTGRGTTGYADSVKGRFTISQDNAKNTVYLRMNSLRPEDTAIYYCAASLGPGRGACGYNYWGQGTQVTVSS",binds
3,"AS76422 (VHH, camel sdAb; crude E. coli supernatant) VHH: QVKLVESGGGSVQAGGSLRLSCAASGYTFAGNCLGWFRQAPGKGREGVVTYNNFGVANYADSVKGRFTVSQDNAKNTLLLQMNSLEPEDTAMYYCAADRRDGRRWSQPCEWNTWGQGTQVTVSS",binds
4,"AS68351 (VHH, camel sdAb; crude E. coli supernatant) VHH: QVQLEESGGGLVQPGGSLRLSCAASGDTFRAYYMNWVRQAPGKGFEWVSGISASGGRTSYADSVKGRFTISRDNAKNTLYLQLNSLSTEDTGMYYCVKGAVRLSTSSVRDSSWGQGTQVTVSS",binds
5,"AS68121 (VHH, camel sdAb; crude E. coli supernatant) VHH: EVQLAESGGGSVQAGGSLRLSCDASGYTYSRNCMGWFRQAPGKEREGVAAFYTDYIRFGRTYYADSVKGRFTIFQDNAKNTVYLQMNSLKPEDTAMYYCAADPGSRTDDSCGTSYNKGNFGYWGQGTQVTVSS",binds
6,"AS68170 (VHH, camel sdAb; crude E. coli supernatant) VHH: QVQLVESGGGSVQAGGSLRLSCTASGYTYRSNCMGWFRQAPGKEREGVATIYTGGGRNLYYADSVKGRFTISRDNAKNTLYLQMNSLKPEDSARYYCAAASDVAVGVNSCGGRTAGFDAWGQGTQVTVSS",binds
7,"AS63964 (VHH, camel sdAb; crude E. coli supernatant) VHH: QVRLVESGGGSVQAGGSLRLSCSASGYTYSYNNMGWFRQAPGNEREGVAAISGGRFTAYADSVKGRFTISRDNAENTLYLQMNNLKPEDTGMYYCAAEVVDPTWGSRDQRRYKYWGQGTQVTVSS",binds
8,"AS64562 (VHH, camel sdAb; crude E. coli supernatant) VHH: EVQLVESGGGSVQAGGSLRLSCAASGYTARRDFMAWFRQVPGKEREGVAVIHTGGDTTYYADSVKGRFTISRDNAQNIMNLQMNSLKPEDTAMYYCAAGFRPRGGGYTGDVLAQAAAYNYWGQGTQVTVSS",binds
9,"AS64605 (VHH, camel sdAb; crude E. coli supernatant) VHH: QVKLVESGGGSVQAGGSLRLSCAVSRYPYSSICMGWFRQAPGKESEGVARIYTGTGSTWYTDSVKGRFTIARDNAQNTVYLQMNSLKPEDTAMYYCAARSNSYSYSSCDYGPLTRGGYNFWGQGTQVTVSS",binds
10,"AS64475 (VHH, camel sdAb; crude E. coli supernatant) VHH: QVQLQESGGGSVQAGGSLRLSCAASGYTWSRNWMGWFRQAPGKEREGFATITISGGSTWYADSVKGRFTISLDNAGNTVYLQMNSLKPEDTAMYYCAARDTARTYWGQGTQVTVSS",binds
11,"AS64123 (VHH, camel sdAb; crude E. coli supernatant) VHH: QVQLAESGGGSVQAGGSLRLSCAASGYTYTSNWLGWFRQAPGKEREEVAIIYTGSGSTHYRSSVKGRFTISQDNAKNTVYLQMNSLKPEDTAMYYCAARFSEYNYWGQGTQVTVSS",binds
12,"AS63999 (VHH, camel sdAb; crude E. coli supernatant) VHH: EVQLVESGGGSVQAGGSLRLSCAASGYTYSSNWMGWFRQAPGKEREEVAIIYTGGISTHYRSSVKGRFTISQDNAKNTVYLQMNSLKPEDTAMYYCAARYTDYNYWGQGTQVTVSS",binds
13,"AS63984 (VHH, camel sdAb; crude E. coli supernatant) VHH: QVKLVESGGGSVQAGGSLRLSCAASGYTYSSNFMGWFRQAPGKEREGVATIVSGGGTTYYADSVRGRFTISQDNAKNTVYLQMNSLKPEDTAMYYCAAGGPVTNAPRWYPLRPPGYNYWGQGTQVTVSS",binds

# Results, then the binder that gave them:
row,binding result,Binder
1,binds,"AS64097 (VHH, camel sdAb; crude E. coli supernatant) VHH: QVHLMESGGGSVQAGGSLRLSCEASGYTYSRNCMGWFRQAPGKEREGVAAINTGGGSTYYADSLEGRFTISQDNAKNTMYLQMNSLKPEDTAMYYCAAGPDLGGSWCRPVERAFTYWGQGTQVTVSS"
2,binds,"AS64072 (VHH, camel sdAb; crude E. coli supernatant) VHH: QVQLVESGGGSVQAGGFLRLSCALSGYSYYINLMAWFRQAPGKEREAVAAHGPVSGTAYYTDSVKGRFTISRDPGKNTMYLQMFSLQPEDTALYYCAAETTMGWAHERGYRYWGQGTQVTVSS"
3,binds,"AS75383 (VHH, camel sdAb; crude E. coli supernatant) VHH: EVQLAESGGGSVQAGGSLRLSCVASGYTFSSYCLGWFRQAPGKQRQGVATFNNRGVANYHDSVKGRFTASVDNAKNTLLLQMNSLEPDDTAMYYCAADRRYGRQWYQPCEWNTWGQGTQVTVSS"
4,binds,"AS64594 (VHH, camel sdAb; crude E. coli supernatant) VHH: QVHLVESGGGSVQAGGSLRLSCAASGYTYNSNYMGWFRQAPGKEREGVALIYTGGGSTYYADSVKGRFTISRDNAKNTVYLQMNSLKPEDTAMYYCSVRTQTRNYWGQGTQVTVSS"
5,binds,"AS68320 (VHH, camel sdAb; crude E. coli supernatant) VHH: QVHLVESGGDSVQAGGSLRLSCAASGYTYNTNYMGWFRQAPGKEREGVAAIYRHSGNTAYADSVKGRFTISQDYAKNTVYLQMNSLKPEDTAMYYCAAGRAGPWALMRPTEFGYWGQGTQVTVSS"
6,binds,"AS64336 (VHH, camel sdAb; crude E. coli supernatant) VHH: QVQLVESGGGSVQAGGSLRLSCTTSGRTYSSCSMGWYRQAPGKERELVSHIFSDGSRYYADSVKGRFTISQDNAKNTVYLQMNSLKPEDTAMYYCNRRTGWAPRCAVPGYWGQGTQVTVSS"
7,binds,"AS64116 (VHH, camel sdAb; crude E. coli supernatant) VHH: QVKLVESGGGSVQAGGSLRLSCAASGYIYSCVGWFRQAPGKEREGVAGISTGGGGTVYADSVKGQFTISRDNAKNTVYLQMDSLKPEDTAMYYCAADRWNSFANCGAWGRYTYWGQGTQVTVSS"
8,binds,"AS64513 (VHH, camel sdAb; crude E. coli supernatant) VHH: EVQLVESGGGSVQAGGSLRLSCVASDYPYIDNCMGWFRQGPGKEREGVAAACTGGGSTYYADSVKGRFTISRDNAKNTVYLQMNSLKPEDTDVYYCATGYYSGSGPGYLLPWRYNYWGQGTQVTVSS"
9,binds,"AS64420 (VHH, camel sdAb; crude E. coli supernatant) VHH: EVQLVESGGGSVQAEGSLRLSCAASGDTSRSVWMGWARQVPGKEREVVATISTAGGSTWYTDSVKGRFTISQDNAKNTVYLQMNSLKPEDTAIYYCAARSRYATYWGQGTQVTVSS"
10,binds,"AS75751 (VHH, camel sdAb; crude E. coli supernatant) VHH: QVRLVESGGGSVQAGGSLRLSCVASGYFYNTYYFMGWFRQAPGKEREGVAAIDTDGRTSYADSVKGRFTISKDNAKNTLYLQMNSLKPEDTAMYYCAAGFGYMNVIQALNGMRQNPDYWGQGTQVTVSS"
11,binds,"AS64137 (VHH, camel sdAb; crude E. coli supernatant) VHH: QVRLVESGGGSVQAGGSLRLSCAASGSTYSTNFMGWFRQAPGKEREGVATLVTWVERTAYADSVKGRFTISQDRAKNTVYLQMNSLKPEDTAMYYCAAAAASTDVRLLDPGDFAYWGQGTQVTVSS"
12,binds,"AS64130 (VHH, camel sdAb; crude E. coli supernatant) VHH: EVQLAESGGGSVQAGGSLRLSCAASGYTYRSNFMGWFRQAPAKEREGVATIDSRGTITYYADSVKGRFTISQDNEKNTVYLQMNSLKPEDTAMYYCAAGGPRTNDDRWYPLRPPGYNYWGQGTQVTVSS"
13,binds,"AS75378 (VHH, camel sdAb; crude E. coli supernatant) VHH: QVQLEESGGGSVQAGGSLRLSCVVSGNTRSTTYMGWFRQAPGKEREGVAIVYTGGRDTYYAASVKGRFTISQDNAKTTIYLQMNSLEPEDTAMYYCAARSYEYTYWGRGTQVTVSS"
14,binds,"AS68270 (VHH, camel sdAb; crude E. coli supernatant) VHH: QVQLAESGGGSVQAGGSLRLSCVASGYPSSTYYMLSMAWFRQAPGKEREGVAAITSGTGSTSYADSVKDRFTISKDYANNTLYLHINNLKPEDTAMYYCAAASGWIVPSRSLTANLYRYWGQGTQVTVSS"
15,binds,"AS64207 (VHH, camel sdAb; crude E. coli supernatant) VHH: EVQLVESGGGSVQAGGSLRLSCAASGYTYSSNFMGWFRQAPGKEREGVATIVSGGGTTYYADSVRGRFTISQDNAKNTVYLQMNSLKPEDTAMYYCAAGGPPTNGAKWYPLRPPGYNYWGQGTQVTVSS"
16,binds,"AS64583 (VHH, camel sdAb; crude E. coli supernatant) VHH: EVQLAESGGGLVQAGGSLRLSCTASGFTIAVYTMGWFRQAPGKEREGISCTSWAGGRTYTADSVKGRFTISRDNAKNTLYLQMNSLKPEDTAMYYCAAKAHPDCSGDWSPSGYEYWGQGTQVTVSS"
17,binds,"AS64346 (VHH, camel sdAb; crude E. coli supernatant) VHH: QVHLVESGGGSVQAGGSLRLSCAASGYTYFMGWFRQAPQKEREWVATIGTGDIFNGAAYYVDSVKGRFAISQDNAKNTVYLQMNSLKPEDTAVYVCAAVQSKSSNYVLRDASTYNYWGQGTQVTVSS"
